Fold mean fluorescence intensity over background, fold mean fluorescence intensity over the combination m1 and m28 and Kd data for one molecule are collected here from publication PMC7870846, “Incorporation of sensing modalities into de novo designed fluorescence-activating proteins” (Nature Communications, 2021).

Assay [1] addresses MBP-tagged split mFAP fragment m12. Description: split reporter (BiFC, NanoBiT); protein-fragment complementation in vitro: complementary MBP-fused split mFAP fragments mixed at equimolar concentration with excess DFHBI-1T (1.00 uL of 1.25 mM in 25.0 uL); fluorescence endpoint ex 478 nm, em 520 nm; background without protein.
Assay [2] has the same target. Description: other fluorescence titration; MBP-tagged fragment titrated into its complementary MBP-tagged fragment; 25.0 uM DFHBI-1T; high-salt Tev cleavage buffer (25.0 mM Tris, 100 mM NaCl, pH 8.00); ex 468 nm, em 530 nm; estimated Kd, signal did not plateau.

A value given as a limit tells only on which side of the number the result lay.

B1: MBP-tagged split mFAP fragment m38 (domain or fragment)
chain: YTMDIVAQGTISDGRPIVGYGKATVKTPDTLDIDITYPSLGNIKAQGQITMDSPTQFKWDATTKGENDFHGRLTGTLQRQE
modifications: here or on the partner: strands 3-8; cut assumed in loop2 (34/35); MBP omitted / strands 1-2 of mFAP2a; cut assumed in loop2 (34/35, as in cp35-34); exact limits are in Supplementary Data 1, not shown; MBP omitted
Broadly, the Kd is the free concentration of one partner at which half of the binding sites on the other are occupied at equilibrium, for simple one-to-one binding. For the molecule B1, in assay [1], the fold mean fluorescence intensity over background was determined as 7.34 fold; the fold mean fluorescence intensity over the combination m1 and m28 worked out at 184 fold. Besides, in assay [2], the Kd is greater than 281 µM.
